Results published in patent US9567577B2, “Expression vector comprising a polynucleotide encoding a modified glutamine synthetase and a method for preparing a target protein employing the same” (ARES TRADING S.A., priority 2012, dated 2017).

System: CHO K-1 cells
Test: TNFR-Fc expression level by ELISA of culture broth of CHO K-1 cells transfected with the expression vectors
Format: cell-based
Conditions: inferred from TNFR-Fc expression under MSX
Description: In order to compare the productivity of TNFR-Fc fusion protein between the GS and DHFR gene expression systems, each of the expression vectors constructed in Example 4 was introduced into CHO K-1 cells so as to prepare each transformant.
In detail, CHO K-1 cells were cultured in a DMEM/F12 medium supplemented with 10% FBS, and 3 to 4×10^5 cells/well were inoculated into a 6 well-plate, followed by cultivation overnight. When the cells reached 80 to 90% confluence, each of the expression vectors was introduced thereto.
To achieve this, 4 μg of each of the expression vectors constructed in Example 4 and 250 μl of Opti-MEM were mixed with each other, and separately, 10 μl of Lipofectamine 2000 (Invitrogen) and 250 μl of Opti-MEM were mixed with each other. Then, each mixture was left at room temperature for 5 minutes. Subsequently, the mixtures were mixed with each other, and left at room temperature for 20 minutes.
Thereafter, the culture medium in the 6-well plate was replaced with 2 ml of Opti-MEM I media, and 500 μl of the final mixture was added to each well of the 6-well plate, followed by cultivation at 37° C. for 4 to 6 hours. The medium was replaced with the original culture medium (DMEM/F12 medium supplemented with 10% FBS), followed by further cultivation overnight. […]

B1: modified GS protein: hamster glutamine synthetase (SEQ ID NO. 4) with glycine at position 299 substituted with arginine (protein, listed as Cricetulus longicaudatus)
chain: MATSASSHLNKNIKQMYLCLPQGEKVQAMYIWVDGTGEGLRCKTRTLDCEPKCVEELPEWNFDGSSTFQSEGSNSDMYLSPVAMFRDPFRRDPNKLVFCEVFKYNRKPAETNLRHSCKRIMDMVSNQHPWFGMEQEYTLMGTDGHPFGWPSNGFPGPQGPYYCGVGADKAYGRDIVEAHYRACLYAGVKITGTNAEVMPAQWEFQIGPCEGIRMGDHLWVARFILHRVCEDFGVIATFDPKPIPGNWNGAGCHTNFSTKAMREENGLKHIEEAIEKLSKRHRYHIRAYDPKGGLDNARRLTGFHETSNINDFSAGVANRSASIRIPRTVGQEKKGYFEDRRPSANCDPFAVTEAIVRTCLLNETGDEPFQYKN
sensitivity to GS inhibitors compared with wildtype GS protein: enhanced sensitivity
